Earlier results, collected in publication PMC9222382.

Target: IL-10Rα (Homo sapiens) (UniProt Q13651)
Chain of UniProt Q13651 (Q13651 22-235): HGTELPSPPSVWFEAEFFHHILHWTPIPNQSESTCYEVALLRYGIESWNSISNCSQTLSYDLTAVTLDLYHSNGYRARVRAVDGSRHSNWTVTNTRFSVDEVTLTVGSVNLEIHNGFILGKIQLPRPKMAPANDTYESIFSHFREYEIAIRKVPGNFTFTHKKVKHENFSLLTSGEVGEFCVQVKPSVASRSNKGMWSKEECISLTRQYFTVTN

- Kd: 1 nM
Substance: IL-10 (from UniProt P22301)
